Square brackets hold non-standard residues; d marks the D form. Primed or numbered codes have the meaning given here. Ends that are not written are not given here. PEG4″ = 4-unit polyethylene glycol spacer; PEG8″ = 8-unit polyethylene glycol spacer
What was measured:
type A insulin receptor [1] = biological target: type A insulin receptor (UniProt P06213); assay: cell-based or functional assay
[2] = biological target: type A insulin receptor, P06213; assay: cell-based or functional assay
[3] = biological target: type B insulin receptor, P06213; assay: cell-based or functional assay
type A insulin receptor [4] = biological target: type A insulin receptor (UniProt P06213); assay: competitive binding SPA, subtype A insulin receptor (FIG. 17D)

B1: #55: Lys^B1-PEG9-Lys^B1 #20* dimer, GE5K-B^1(H5,10Y16L17)25-C^1-A^1(H8N18,21) (ligand)
chain: GEEEEEKGPEHLCGAHLVDALYLVCGDRGFYGYGSSSRRAPQTGIVDECCHRSCDLRRLENYCN
Type A insulin receptor [1]
  Phosphorylation (EC50), % IR-A: 44%

B2: #57: Gly^B2-PEG20K-Gly^B2 #11 dimer (ligand)
chain: GPEHLCGAHLVDALYLVCGDRGFYGYGSSSRRAPQTGIVDECCHRSCDLRRLENYCN
modifications: not fully specified (N-terminus); ends and bridges not checked; also: dimer: N-terminal amines of two chains joined by bifunctional 20K PEG linker
[2]
  % Insulin Activity (in vitro, assay not named): 19.7%
  Phosphorylation (EC50), % IR-A: 19.7%
  potency against the 20K PEGylated monomer (#39): 4 fold
[3]
  % Insulin Activity (in vitro, assay not named): 5.8%
  Phosphorylation (EC50), % IR-B: 5.8%
  potency against the 20K PEGylated monomer (#39): 4 fold

B3: #56: Gly^B2-PEG10K-Gly^B2 #11 dimer (ligand)
chain: GPEHLCGAHLVDALYLVCGDRGFYGYGSSSRRAPQTGIVDECCHRSCDLRRLENYCN
modifications: not fully specified (N-terminus); ends and bridges not checked; also: dimer: N-terminal amines of two chains joined by bifunctional 10K PEG linker
[2]
  Phosphorylation (EC50), % IR-A: 38.2%
[3]
  Phosphorylation (EC50), % IR-B: 9.7%

B4: #53: Lys^C8-Lys^C8 #3 dimer, B^1[H5Y16L17]25-PEG8KPEG4-A^1[N18,21] (ligand)
chain: Ac-GPEHLCGAELVDALYLVCGDRGFY[PEG8″]K(mercaptopropionyl)[PEG4″]GIVDECCFRSCDLRRLENYCN
modifications: ends and bridges not checked; also: dimer: linker Lys side chains joined by disulfide to second chain
Type A insulin receptor [4]
  binding affinity, fold against native insulin: 1.5 fold

B5: #59: Cys^B1-Lys^C8 #2(sc)-#3 dimer (ligand)
chain 1: CGPEHLCGAELVDALYLVCGDRGFYFNKKGIVDECCFRSCDLRRLENYCN
chain 2: GPEHLCGAELVDALYLVCGDRGFYKGIVDECCFRSCDLRRLENYCN
modifications: here or on the partner: N-terminus acetylated; linker Lys epsilon-amine mercaptopropionylated; Cys B1 side chain disulfide-linked to the mercaptopropionyl group on the linker Lys of the second chain
[2]
  IC50, antagonism test: 2.08 nM
[3]
  maximal response: 10%

B6: #60: Cys^B1-Lys^C8 #2(tc)-#3 dimer (ligand)
chain 1: CGPEHLCGAELVDALYLVCGDRGFYFNKK
chain 2: GIVDECCFRSCDLRRLENYCN
chain 3: GPEHLCGAELVDALYLVCGDRGFYKGIVDECCFRSCDLRRLENYCN
modifications: here or on the partner: N-terminus acetylated; linker Lys epsilon-amine mercaptopropionylated; Cys B1 side chain disulfide-linked to the mercaptopropionyl group on the linker Lys of the single-chain unit
[2]
  IC50, antagonism test: 1.89 nM
  maximal receptor response: 50%
[3]
  maximal response: 50%

B7: #58: Lys^C8-PEG20K-Lys^C8 #3 dimer (ligand)
chain: Ac-GPEHLCGAELVDALYLVCGDRGFY[PEG8″]KGIVDECCFRSCDLRRLENYCN
modifications: not fully specified (some residues); numbers in words are those of the source; ends and bridges not checked; also: dimer: linker Lys epsilon-amines of two chains joined by bifunctional 20K PEG linker
[2]
  Phosphorylation (EC50), % IR-A: 18.6%
